For 2 substances, stoichiometry N, haemolysis of horse erythrocytes by a 1:1 AhlB/AhlC mixture, 1 h, against lysis by osmotic shock with water and haemolysis with glutaraldehyde-cross-linked AhlC (mixture of monomeric and dimeric AhlC), reduction of lysis results are on record in publication PMC6602965.

For experiment [1], the target named is AhlB (Aeromonas hydrophila strain AL09-71). As to the kind of experiment: crystal structure.
Experiment [2] has the same target.
Experiment [3] addresses AhlC (Aeromonas hydrophila strain AL09-71).
Experiment [4] shares this target. In words: SEC; gel filtration of AhlC alone (Supplementary Fig. 2). (In general: In gel filtration, larger molecules generally elute earlier.)
For experiment [5] the target is unchanged. In words: crystal structure; soluble AhlC, two crystal forms (P6(5)22, 2.35 A; P2(1), 2.6 A).
The target is the same in experiment [6]. As to the kind of experiment: cross-linking; 1.4 mg/ml soluble AhlC with glutaraldehyde (15 min, room temperature), then EDC in 0.1 M MES pH 6 (30 min); SDS-PAGE.

Broadly, the stoichiometry N is a count of units in the complex or per binding partner. In turn, AhlB (natural protein) came in with a stoichiometry N in experiment [1] of 10.
As to AhlC (natural protein), the haemolysis of horse erythrocytes by a 1:1 AhlB/AhlC mixture, 1 h, against lysis by osmotic shock with water in experiment [2] was determined as 50%. In addition, the haemolysis with glutaraldehyde-cross-linked AhlC (mixture of monomeric and dimeric AhlC), reduction of lysis in experiment [3] stood at 50 % reduction. In addition, the stoichiometry N amounted to 4 in experiment [4], 4 in experiment [5] and 2 in experiment [6].
